The source of these data is patent US20210009975A1 (UNIVERSITY OF GEORGIA RESEARCH FOUNDATION, published 2021).

Residue numbers refer to the chain shown, from its start. In names and notes the source's numbering stands.

Assay [1] deals with fetuin (UniProt P12763).
Assay [2] addresses 3'-sialyllactose-BSA (bovine).
Assay [3] addresses 3'-sialyllactose-BSA (bovine). Nature of the assay: LAC, Sia-3S1 column, 100 µg loaded.
For assay [4], the target named is fetuin (UniProt P12763). Nature of the assay: LAC, Sia-3S1 coupled to Sepharose column, 100 µg fetuin loaded.
Assay [5] deals with 3'-sialyllactose-BSA (bovine). Nature of the assay: LAC, Sia-3S1 column, 50 µg loaded, 10 mM EPPS pH 7.5 with 110 mM NaCl.
Sequence of 3'-sialyllactose-BSA (bovine) (P02769 25-607 limits assumed): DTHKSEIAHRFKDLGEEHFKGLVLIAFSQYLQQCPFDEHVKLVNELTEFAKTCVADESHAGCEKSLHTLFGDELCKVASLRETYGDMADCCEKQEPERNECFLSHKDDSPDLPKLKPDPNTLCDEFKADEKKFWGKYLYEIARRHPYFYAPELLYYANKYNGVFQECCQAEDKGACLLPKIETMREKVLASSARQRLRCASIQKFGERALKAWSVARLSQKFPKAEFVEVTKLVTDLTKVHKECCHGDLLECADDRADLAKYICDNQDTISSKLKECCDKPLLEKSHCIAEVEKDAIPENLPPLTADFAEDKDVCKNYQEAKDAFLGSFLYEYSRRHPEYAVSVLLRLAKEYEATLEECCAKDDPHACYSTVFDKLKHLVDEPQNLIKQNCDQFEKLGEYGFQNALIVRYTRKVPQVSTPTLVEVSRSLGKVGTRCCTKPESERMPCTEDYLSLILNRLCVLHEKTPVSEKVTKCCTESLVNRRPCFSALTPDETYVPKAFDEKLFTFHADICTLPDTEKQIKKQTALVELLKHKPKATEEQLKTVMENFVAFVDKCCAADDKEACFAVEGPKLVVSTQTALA
Assay [6] addresses proteins of MCF7 cell-free extract. Nature of the assay: LAC, Sia-PS1 column, elution with 3′SL and 6′SL.
Assay [7] shares this target. Nature of the assay: LAC, Sia-PS1 column, approximately 500 µg CFE loaded.
The target is the same in assay [8]. Nature of the assay: LAC, Sia-PS1 column, about 1.5 mg MCF7 proteins circulated at 4 °C overnight.
The target in assay [9] is T1, asialofetuin (UniProt P12763 19-359, de-sialylated glycans).
T1 construct: also called de-sialylated fetuin
T1 sequence: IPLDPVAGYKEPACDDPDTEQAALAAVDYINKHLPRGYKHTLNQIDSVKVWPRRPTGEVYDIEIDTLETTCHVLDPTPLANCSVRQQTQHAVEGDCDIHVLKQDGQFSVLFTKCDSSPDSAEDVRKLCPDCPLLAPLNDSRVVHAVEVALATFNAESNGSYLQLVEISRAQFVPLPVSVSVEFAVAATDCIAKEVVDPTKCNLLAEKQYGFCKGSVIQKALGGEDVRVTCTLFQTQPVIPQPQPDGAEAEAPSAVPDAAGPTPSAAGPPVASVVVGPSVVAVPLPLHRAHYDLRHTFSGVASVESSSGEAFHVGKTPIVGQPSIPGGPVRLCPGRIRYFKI
Nature of the assay: Western blot, Sia-3S1 as probe, anti-poly-His-HRP detection. (In general: Immunoblotting shows a protein as a band on a membrane.)

Assay [10] deals with T2, horseradish peroxidase (horseradish, UniProt P00433 31-338).
T2 construct: also called HRP
T2 sequence: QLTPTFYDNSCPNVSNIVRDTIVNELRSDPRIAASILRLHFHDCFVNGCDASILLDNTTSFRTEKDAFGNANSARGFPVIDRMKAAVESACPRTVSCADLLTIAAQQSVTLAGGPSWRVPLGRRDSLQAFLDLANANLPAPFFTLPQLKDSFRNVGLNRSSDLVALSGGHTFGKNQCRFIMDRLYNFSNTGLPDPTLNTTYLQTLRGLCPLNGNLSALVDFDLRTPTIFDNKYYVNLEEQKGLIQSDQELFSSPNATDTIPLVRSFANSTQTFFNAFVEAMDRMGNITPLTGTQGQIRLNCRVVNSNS
Nature of the assay: Lectenz affinity chromatography (LAC), Sia-PS1 coupled to Sepharose column.

In assay [1], “Sia-3S1 Lectenz (NanB residues 30-697 with R193A, D270Q, A538V, E541D) (designed binder)” displayed a percent of bound fetuin competitively eluted by 3′SL of 100% and a percent of bound fetuin competitively eluted by 6′SL of 50%. Moreover, the 3'SL-BSA Elution (amount of bound 3'SL-BSA eluted from the column) in [2] worked out at 45 µg. The molecule also came in with an amount in flow through in assay [3] of 5 µg. In assay [4], this molecule gave an amount bound to the column of 85 µg. The amount that did not bind to the column in assay [5] is 5 µg.
Turning to “Sia-PS1 Lectenz (NanB residues 30-697 with Y653F) (designed binder)”, in assay [6], the percent of total proteins bound to the column was found to be 10%. Also, in assay [7], the amount of bound proteins (elution peak) worked out at 30 µg and the amount of unbound proteins (flow-through peak) is 319 µg. In assay [8], this molecule came in with an amount of protein in eluted peak of 207 µg and a percent of loaded proteins in eluted peak of 13.8%.

B1: Sia-3S1 Lectenz (NanB residues 30-697 with R193A, D270Q, A538V, E541D) (designed binder)
chain: NELNYGQLSISPIFQGGSYQLNNKSIDISSLLLDKLSGESQTVVMKFKADKPNSLQALFGLSNSKAGFKNNYFSIFMRDSGEIGVEIRDAQKGINYLFSRPASLWGKHKGQAVENTLVFVSDSKDKTYTMYVNGIEVFSETVDTFLPISNINGIDKATLGAVNAEGKEHYLAKGSIDEISLFNKAISDQEVSTIPLSNPFQLIFQSGDSTQANYFRIPTLYTLSSGRVLSSIDARYGGTHQSKSKINIATSYSDDNGKTWSEPIFAMKFNDYEEQLVYWPRDNKLKNSQISGSASFIDSSIVEDKKSGKTILLADVMPAGIGNNNANKADSGFKEINGHYYLKLKKNGDNDFRYTVRENGVVYNETTNKPTNYTINDKYEVLEGGKSLTVEQYSVDFDSGSLRERHNGKQVPMNVFYKDSLFKVTPTNYIAMTTSQNRGESWEQFKLLPPFLGEKHNGTYLCPGQGLALKSSNRLIFATYTSGELTYLISDDSGQTWKKSSASIPFKNVTADAQMVELRDGVIRTFFRTTTGKIAYMTSRDSGETWSKVSYIDGIQQTSYGTQVSAIKYSQLIDGKEAVILSTPNSRSGRKGGQLVVGLVNKEDDSIDWKYHYDIDLPSYGYAYSAITELPNHHIGVLFEKYDSWSRNELHLSNVVQYIDLEINDLTK
notes: also called Sia-31 [sic]; not shown: N-terminal hexa-histidine tag
Consider B1, for which, in assay [9], the binding result is recorded as “no binding (tested: 1 µM)”.

B2: Sia-PS1 Lectenz (NanB residues 30-697 with Y653F) (designed binder)
chain: B1 chain with A164R, Q241D, V509A, D512E, Y624F
For the molecule B2, the binding result in assay [10] is given as “no binding”.
